Source: patent US20100285022A1 (TRELLIS RSV, published 2010)

T1: RSV G protein of strain A (Ga protein) (respiratory syncytial virus, strain A …, UniProt P03423 66-298)
T1 construct: also called RSV-Ga; RSV-GA2 protein
T1 sequence (looked up): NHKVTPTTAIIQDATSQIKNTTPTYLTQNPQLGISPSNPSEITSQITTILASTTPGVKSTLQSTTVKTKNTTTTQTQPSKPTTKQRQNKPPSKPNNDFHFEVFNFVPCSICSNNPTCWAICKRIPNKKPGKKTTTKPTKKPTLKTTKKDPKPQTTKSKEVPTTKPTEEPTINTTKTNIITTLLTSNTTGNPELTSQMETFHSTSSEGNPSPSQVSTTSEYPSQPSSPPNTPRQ

T2: Ga derived 12-mer peptide SKPNNDFHFEVF (SEQ ID NO:8) (respiratory syncytial virus, strain A …)
T2 construct: Peptide on an array of overlapping 12-mers
T2 peptide: SKPNNDFHFEVF


Columns and labels:
[1] = target: T3, G protein on live RSV virus coated on the plate (strain not stated) (respiratory syncytial virus); assay: ELISA on live RSV virus coated on the plate, anti-human Fc-HRP detection
T3 construct: whole, on cells; also called live virus; virus particles

[2] = target: T1, RSV G protein of strain A (Ga protein); assay: Biacore, antibody on chip, recombinant Ga in flow
[3] = target: T4, RSV G protein of strain B (Gb protein) (respiratory syncytial virus, strain B); assay: Biacore, antibody on chip, recombinant Gb in flow
T4 construct: also called RSV-Gb; G protein from strain B

[4] = target: T1, RSV G protein of strain A (Ga protein); assay: Biacore, ratio of on-rate to off-rate; Biacore, not the ELISA midpoint (4 nM)
[5] = target: T2, Ga derived 12-mer peptide SKPNNDFHFEVF …; assay: peptide array of overlapping 12-mer Ga peptides probed with 131-2G at 1 ug/ml, chemiluminescence

| Binder | EC50 (read off the curve) [1] [µg/mL] | Kd [2] [nM] | other results |
| --- | --- | --- | --- |
| human monoclonal antibody 3D3 (antibody, V domains shown) VH: EEQLVESGGGLVQPGRSLRLSCVGSGLRFEEHAMHWVRQAPGRGLEWVSGISWNSGSVGYADSVKGRFTTSRDNAKDILFLEMNTLRSEDTALYFCAIMVATTKNDFHYYKDVWGKGTTVTVSS VL: QIVLTQSPATLSLSPGERATLSCKASQSVSNHLAWYQQKPGQAPRLLIYETSNRATGIPPRFSGSGSGTDFTLTISSLEPEDFAVYYCQQRNNWYTFGQGTKLEIK | ~0.1 | 0.0011 |  |
| human monoclonal antibody 1G8 (antibody, V domains shown) VH: QLQLQESGPGLVKPSETLSLTCTVSGDSITSGQYYWAWIRQAPGKGLEWIGSIHYSGSTYQNPSLKSRLTISVDTSRDQISMKLSSVTVAESAVYYCAKQQLSLSPVENWFDPWGQGTLVTVSS VL: EIVVTQSPVTLSVSPGESAALSCRASRSVGSRLAWYQQKPGQPPRLLIFAASTRATGIPARFSGSGSGTDFTLIISGLQSEDYAVYYCQQYKEWPLFTFGPGTTVDSK | ~0.3 | 0.024 |  |
| human monoclonal antibody 3G12 (antibody, V domains shown) VH: QLQLQESGPGLVKPSETLSLTCTVSGGSISSSNYYWGWIRQPPGKGLEWIASIHDSGSIYYNPSLRSRVTISVDTSKNQFSLKLSSVTAADTAVYYCARHLVWFGELRNNWFDPWGQGTLVTVAS VL: EIVMTQSPATLSVSPGERATLSCRASQSVNSNLAWYQHKPGQAPRLLIYGASTRATGIPARFSGSGSGTDFTLTISSLQSEDFAVYYCQQYNNWPLFGPGTKVDLK |  | 0.579 |  |
| human monoclonal antibody 1D4 (antibody, V domains shown) VH: QVQLLQSGAELKKPGASVKVSCQASIDTFSTYYIHWVRQAPGQGLEWLGVINPSGGSTTYAQKFQDRITLTTDTSTRTVYMDLSSLRSEDTAVYYCARVHKGRAEQWQLLHGHFDLWGRGSLVTVSS VL: not shown |  | 0.23 | Kd [3]: 0.052 nM |
| human monoclonal antibody 5D8 (antibody, V domains shown) VH: QAQLVESGGGVVQPGRSLRLSCAASGFTFSYSGMHWVRQAPGRGLEWLAVISYDGNKMYYADSVKGRFTISRDNSKMTLYLQMNSLRREDTAVYYCAKDGLDYGGDLVYYGMDVWGNGTTVTVSS VL: SYELTQPPSVSVSPGQTGRITCTGSEASGDALASRYAYWYQHKSGQAPVVLIYKDTERPSGISERFSGSSSGTTVTLIISGVLAEDEADYYCKTSVRNGTSWVFGTGTMLTVL |  | 4.39 |  |
| murine monoclonal antibody 131-2G (antibody, V domains shown, also called mAb 1312G) VH: EVQLQQSGPELVKPGTSVKISCKASGYSFTGFTMNWVKQSHGKNLEWFGLINPFNGNTGYNQKFKGKATLTVDKSSSTAFMELLSLTSEDSAVYYCARSGKSYDYEAWFTYWGQGTLVTVSA VL: DIVMTQTTLSLPVSLGNQASISCRSSQTIVHTNGNTYLEWYLQKPGQSPKLLIYKVSNRFSGVPDRFSGSGSGTDFILNISRVEAEDLGVYYCFQGSHVPFTFGSGTKLEIKR |  |  | Kd [4]: 7 nM; binding result [5]: binds |
